Experimental data published in article PMC5428028, “Role for the ATPase inhibitory factor 1 in the environmental carcinogen-induced Warburg phenotype” (Scientific Reports, 2017).

Biological target: the molecule itself
Assay: western blot (band of dimer size after electrophoresis); mitochondrial fractions of F258 cells exposed to B[a]P (50 nM or 1 µM, 48 h), lysed in RIPA buffer; 24 kDa band beside the 12 kDa monomer; gel conditions not shown

B1: ATPase inhibitory factor 1 (IF1) (natural protein, rat (endogenous in F258), UniProt Q03344 26-107, looked up)
chain: GSDSSESMDSGAGSIREAGGAFGKREKAEEDRYFREKTREQLAALKKHHEDEIDHHSKEIERLQKQIERHKKKIKYLKNSEH
notes: monomeric form printed as 12 kDa, dimer band as 24 kDa; Detected with a polyclonal rabbit anti-ATPIF1 antibody, used only as a tool; The western blot methods are in the Supplementary Information; also called ATPIF1; source: endogenous, mitochondrial fraction of F258 rat liver epithelial cells, lysed in RIPA buffer
  stoichiometry N: 2
